assay: protease stability score; higher = more stable; yeast display proteolysis, trypsin and chymotrypsin;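 further: relative to predicted unfolded state with 0 unfolded-like and 1 meaning tenfold more protease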

Point of comparison: “DDREKYLTKLMELFIEHWRTGDEEAFLEYFDPHVRIEHIFNGQETRRHGRELFSILLTHEWLFFKNVRIHWKRSEVQGEKTVIHMELHVGDKSLKVRIHLDVVDGRVRSVNIEIE”, protease stability score 0.548. Against it:
- NEDDKHAKHLLDLLIRTFITGDEHTLMNLLDPHTRYHQGEKELHGMEMLLHVERHHGATVHHFHVKSVRVIGDKIQFHVHVDHTIDGKRIRTDIDLWMEKVDGRWIVREIRIH — higher, 0.815
- DEEEKEFEFAEQVLKESLLTGDERTLKELMDPHVRLEQGDKLYIGRESFIKWWSKRREELGINHLHYRIKEVHIVNGRVRVNSHIEIIIGDKRHEEKVHFVLLKINGRWLMESVHME — higher, 1.46
- DEKEELSKRAFERMLHWLETGDFDKFERYADPNVKTVIGDKYFIGRERVSRTVLHWLEVLGVDHRHVEDSDVHTFENHAVMDLHTRVHVDGQDREIRFILLVTKVNGRWNVTSIKIEIR — higher, 0.661
- SEHEEIMHKALLFLIYVLLTGDEEILHELLDPNARLDVNGREKHGREDWVQLKRELIHKIKNVRIELHDMKVIGDFLISDQRHDYDGREYKMDVFAFKVDGQWKVREEKLD — higher, 1.44
- TEEERLHHELAKLMIHLMHTGDFDKLIKLVDPHAKLDEDVDGREVHVHGMEKWFEYLKEKFERIKNITIHIRDWRVYNGRVEIHVEYDINGKHVDTTIRLDVVNGRVKRIQIEQK — higher, 2.16
- DEKTEEIERFFKKWVEALRTGDWKTLMELLDPNARFDINGREIIGREIYVKILKEELKHFGVTRIHNEVEIKHSDEQGNKLNLDGKLIINWDGKNDETRLILYVLKVDGRWIIEEVRIR — higher, 1.44
- HEEEEFSRRLAEMLFEFWLTGDEDALERLIDPNARVEMSINGRDFHTHGRDHIIEWVRKIKNLVFRIRRVEIQGEKIILDGEFDVNGVRTRWKLNLVFIDGVVHRLNIIHV — higher, 1.72
- DETFEWANIAIEHLIHSARTGDEKTFEEMADPDTRFLYNGQIIIGREEVNKMLSTVLREIRLEDVQVKRIEVYDGRVHSDMTRQGEFDGRHFTSKTEFIVHKVDGRWSIKEIRIT — higher, 0.89
- DEWLEMAMRIIFRYLLLLATGDEDIVNHYMDPNVKIDVNGREEHGRERALEQLEEIRRQYPGLTLTHLHIEDLKVVGNYVRVDGYVEGRIDGRRIELKTEFIILKINGRWRMHSVKEH — higher, 1.74
- SEDDEKLKDFLRMLIEVILTGDEERFFELLDPHARLEYGDKEFHGREVIYHWFFNEFRRIKGLVFRNIHLREHDVVDGRLQIDLEVHIIFNGKTRSHDIHFVATKIDGRWILRTESIK — higher, 2.33
- SEDREQVHRFFEQFSRDTLTGNEERNFEMADPHTRFDIDGRIIIGRDIILHHWKEEMRKHGAEMKIHIHHVRVQGDKATVDLRVEIHINGRTYEYKVVMIVEKIDGRWVLTQIKYE — lower, 0.365
- SEDDDSAREILRILTEAWYTGNEDELIRLMDPNARSLFDGVEFHGRELVRLWKERVDHTHSIKVKLHSMRIIGNKLEVDGRLEQEGEINGRRFLIVVEVHLIILKVNGRWRMHSVEVR — higher, 1.68
- SEIERDAREFLRVLLEHLHTGDEDDLARLADPHVLIDIDGREIVGRELFREIWHEMGVNHTEYKDLDIQGNKLHIHINVNVNGKVRSLRIVVRKVNGRWFIEREHYE — higher, 1.52
- DEDHRIAHEIFRLLFHLLSTGDEDIFNQMADPHVQSIVGDKEFHGREQLRKAWHEIRVHRSDIHSVEIRVINGRVRNDMRIRYDGEINGKKIDTDIHMEVVIDKYNGRWIIRSVSIEII — higher, 2.16
- KEREELLKTAADLMYHIWHTGDFEKLFKNVDPHVKINVGDKTYVGREQMHKIFKELKERLGFDVSSLEHRHLDMQGDFIFNELHVRLHQGDFEIQSWIHVIIYKVNGKWVVHEIKLHWD — higher, 1.6
- DKEEKEAREWSKRFLHLFLTGNEEEFKRLMDPHTQSMLLIDGKRDTHHGRDEATKLLSDWLNHMRLRELRVHDIKVQGDKATLDIRLNVEFNGVELERTSEIIIVVFDGRIKSVIFRIE — higher, 1.55
- DERHETEERFLRTLIHSHMTGDEESHFEMMDPHAKLIYNGKEIHGMEVLRKELEEWRKKLGANHSHITIDHVELQGNKAHFDVTIDLIVDGRVIRTRIHIDIEKVDGRWIITRVIVK — lower, 0.489
- DEIEHHDRIIHHLTLHAFFTGDESITEHLADPDVRLDIVQGDKFNHVIGREMVVQWLEEWWRRVKNARFRVHRVEVINGQVNLRVEVDINGKRVDFTLIIIVIDGKIRSQEVIFH — higher, 1.67
- SEEDKLIKDAFTEIHTWIKTGNEEYLERLVDPHVKIIINGRELHGMEFLHEELKRFDHLHLRDHHLESFDIQGNKIVLEGTNDIEIKWNGVRIRTELEIHFFVEKVNGKWIIREFVIV — higher, 1.26
- SEDEESFRHIIELMKHSLKTGDWRHLEKLLDPNARVHINGKESHGREEAVKAFRHTWEMLGIDHIEFKDEKIRMQGNKVHVHIDGVINVNGVELKSHFEHHIVKFNGRWHTEKLVIQLD — higher, 1.93
- EEDDRDLEDLLTKLDSAIQTGNWEILHHLIDPHARSHYNGRDFHGWRDLEFLLRIIVEEIRLDTVDMKHHEFYGDKMRLETTLTGEVNGQKTEFTTVLIYLKIDGKWVIHNFEVR — higher, 0.729
- SEREEHTEEVWRDWLQSILTGDEDDLKRLADPHVRLEINFDGRTLIYHGREIVARFWSELRIRHFTLRHLKMIGDKIQVKGETKLEQGDKKVDSSVDLDTDIINGVIKREFVVYR — higher, 0.892
- DEDHRLWEEMIRILHDALRTGDEDMLEHLMDPDTRLHVGDKNVHGRRDMKYFWEILGVDRVELVIRSFRLIDGKAEIDGESRFNGVTRRVRLIHNKINGRWLTESIHIH — higher, 0.745
- DEEHEHAKRAVKKTLTDYYTGDEDSISDLADPNVIQDVGDKEYHGREEFLRSMHKIIKWLGVDHIEVHRVHLINGRVFSRLRLEVDGREVELIIIILKINGRWHWHSMRIIHR — higher, 1.03

Reference: the NTF2 design screens of Basanta et al. (2020)
